According to paper PMC11734896, “Engineering dimer mutants of human geranylgeranyl pyrophosphate synthase” (PLOS ONE, 2025):

B1: wild-type human geranylgeranyl pyrophosphate synthase (enzyme)
chain: MEKTQETVQRILLEPYKYLLQLPGKQVRTKLSQAFNHWLKVPEDKLQIIIEVTEMLHNASLLIDDIEDNSKLRRGFPVAHSIYGIPSVINSANYVYFLGLEKVLTLDHPDAVKLFTRQLLELHQGQGLDIYWRDNYTCPTEEEYKAMVLQKTGGLFGLAVGLMQLFSDYKEDLKPLLNTLGLFFQIRDDYANLHSKEYSENKSFCEDLTEGKFSFPTIHAIWSRPESTQVQNILRQRTENIDIKKYCVHYLEDVGSFEYTRNTLKELEAKAYKQIDARGGNPELVALVKHLSKMFKEENE
notes: geranylgeranyl pyrophosphate synthase (GGPPS), human; theoretical subunit mass printed as 37,424 Da; The printed subunit mass of 37,424 Da is larger than that of the untagged natural protein as I recall it, so a tag was probably kept; also called GGPPS; WT GGPPS
B2: human GGPPS Y246K/C247L mutant (enzyme)
chain: MEKTQETVQRILLEPYKYLLQLPGKQVRTKLSQAFNHWLKVPEDKLQIIIEVTEMLHNASLLIDDIEDNSKLRRGFPVAHSIYGIPSVINSANYVYFLGLEKVLTLDHPDAVKLFTRQLLELHQGQGLDIYWRDNYTCPTEEEYKAMVLQKTGGLFGLAVGLMQLFSDYKEDLKPLLNTLGLFFQIRDDYANLHSKEYSENKSFCEDLTEGKFSFPTIHAIWSRPESTQVQNILRQRTENIDIKKKLVHYLEDVGSFEYTRNTLKELEAKAYKQIDARGGNPELVALVKHLSKMFKEENE
notes: also called KL; KL mutant
B3: human GGPPS Y246D/C205A mutant (enzyme)
chain: MEKTQETVQRILLEPYKYLLQLPGKQVRTKLSQAFNHWLKVPEDKLQIIIEVTEMLHNASLLIDDIEDNSKLRRGFPVAHSIYGIPSVINSANYVYFLGLEKVLTLDHPDAVKLFTRQLLELHQGQGLDIYWRDNYTCPTEEEYKAMVLQKTGGLFGLAVGLMQLFSDYKEDLKPLLNTLGLFFQIRDDYANLHSKEYSENKSFAEDLTEGKFSFPTIHAIWSRPESTQVQNILRQRTENIDIKKDCVHYLEDVGSFEYTRNTLKELEAKAYKQIDARGGNPELVALVKHLSKMFKEENE
notes: also called DA; DA mutant
B4: human GGPPS Y246D/C247L mutant (enzyme)
chain: MEKTQETVQRILLEPYKYLLQLPGKQVRTKLSQAFNHWLKVPEDKLQIIIEVTEMLHNASLLIDDIEDNSKLRRGFPVAHSIYGIPSVINSANYVYFLGLEKVLTLDHPDAVKLFTRQLLELHQGQGLDIYWRDNYTCPTEEEYKAMVLQKTGGLFGLAVGLMQLFSDYKEDLKPLLNTLGLFFQIRDDYANLHSKEYSENKSFCEDLTEGKFSFPTIHAIWSRPESTQVQNILRQRTENIDIKKDLVHYLEDVGSFEYTRNTLKELEAKAYKQIDARGGNPELVALVKHLSKMFKEENE
notes: also called DL; DL mutant

Legend:
[1] = biological target: T1, geranylgeranyl pyrophosphate synthase (GGPPS) (Homo sapiens, UniProt O95749, Y246D/C247L)
T1 construct: gene GGPS1

[2] = biological target: the molecule itself; assay: SEC; HiLoad 16/600 Superdex 200 step of the purification; 10 mM HEPES pH 7.5, 500 mM NaCl, 2 mM β-mercaptoethanol, 5% glycerol; mass estimated from a standard curve; self-association
[3] = biological target: the molecule itself; assay: differential scanning fluorimetry (Tm) + native gel or EMSA; oligomeric state inferred from Tm without inhibitor (10 mM HEPES pH 7.5, 100 mM NaCl, 3 mM MgCl2, 0.5 mM TCEP, 5 μM protein), supported by native-PAGE (S2 Fig); self-association

Molecule | stoichiometry N [2] | stoichiometry N [3] | also measured
C=C(C)CCO[P@@](=O)(O)OP(=O)(O)O [IPP, isopentenyl pyrophosphate] |  |  | X-ray crystal structure, 2.1 Å [1]: clearly indicated the presence of IPP within its anticipated binding site in one subunit of the dimer mutant
B1 | 6 |  | 
B2 |  | 2 | 
B3 |  | 2 | 
B4 | 2 |  | 
